Primed or numbered codes have the meaning given here. Ends that are not written are not given here. FITC′ = fluorescein isothiocyanate
Legend:
hTLR4 (human TLR4) = target: T1, hTLR4 (human TLR4) (Homo sapiens, UniProt O00206); assay: SEAP activity (NF-κB activity) in HEK-Blue-hTLR4 cells; assay type: cell-based; details: for NF-κB activity (SEAP activity): together with LPS, FIG. 12(a); for SEAP activity, CPP sequence not linked: 12.5, 25, 50 μM, FIG. 1(b)
T1 construct: host or cells: HEK-Blue-hTLR4 (HEK293-derived reporter line)
T1 sequence (O00206 24-839): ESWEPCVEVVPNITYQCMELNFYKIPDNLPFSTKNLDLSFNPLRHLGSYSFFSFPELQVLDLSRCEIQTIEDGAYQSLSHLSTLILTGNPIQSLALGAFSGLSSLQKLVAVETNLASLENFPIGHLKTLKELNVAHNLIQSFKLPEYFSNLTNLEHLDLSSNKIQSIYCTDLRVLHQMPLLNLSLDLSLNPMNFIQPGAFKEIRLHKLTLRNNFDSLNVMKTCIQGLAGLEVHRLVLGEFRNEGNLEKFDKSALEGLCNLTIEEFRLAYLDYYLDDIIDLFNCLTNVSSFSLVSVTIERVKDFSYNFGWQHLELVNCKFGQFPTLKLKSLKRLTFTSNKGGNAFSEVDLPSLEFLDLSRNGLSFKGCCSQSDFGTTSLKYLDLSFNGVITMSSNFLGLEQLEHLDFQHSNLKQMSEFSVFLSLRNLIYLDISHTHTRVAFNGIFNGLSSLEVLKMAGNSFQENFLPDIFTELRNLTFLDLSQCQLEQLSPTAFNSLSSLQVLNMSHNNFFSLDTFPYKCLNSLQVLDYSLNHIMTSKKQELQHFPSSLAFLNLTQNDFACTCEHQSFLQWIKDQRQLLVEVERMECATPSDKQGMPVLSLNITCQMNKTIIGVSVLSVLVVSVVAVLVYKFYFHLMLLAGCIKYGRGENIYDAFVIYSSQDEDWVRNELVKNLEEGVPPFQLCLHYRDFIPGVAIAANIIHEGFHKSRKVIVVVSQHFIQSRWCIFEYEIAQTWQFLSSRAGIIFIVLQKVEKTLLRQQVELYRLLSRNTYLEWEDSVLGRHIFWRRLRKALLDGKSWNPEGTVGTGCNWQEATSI
T1 sequence (Q9Y6Y9 17-160 partner limits assumed): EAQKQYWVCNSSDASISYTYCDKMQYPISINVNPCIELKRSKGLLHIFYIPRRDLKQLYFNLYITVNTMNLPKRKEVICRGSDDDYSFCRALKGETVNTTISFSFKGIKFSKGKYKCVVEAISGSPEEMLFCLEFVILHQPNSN
Method: HEK-Blue™-hTLR4 cells were dispensed into 24-well plates (BD Biosciences) to a cell number of 2×10^5 cells/well, and incubation was performed overnight. The next day, the culture was removed and medium replacement was performed. Then, a portion (200 μl) of the culture was transferred to a microcentrifuge tube and heated at 65° C. for 10 minutes using a heating block (FINEPCR. Co., Seoul, Korea). Subsequently, the culture was transferred to 96-well plates (BD Biosciences), and absorbance was measured at 405 nm using the HEK-Blue™ detection kit (InvivoGen) and a microplate reader spectrophotometer (Molecular Devices Inc., Silicon Valley, Calif., USA), to analyze an expression level of SEAP (secreted alkaline phosphatase).
To this end, the inducible secreted embryonic alkaline phosphatase (SEAP) reporter gene was placed under the control of an IL-12 p40 minimal promoter (IL-12 p40 is produced by activation of NF-κB and AP-1 (activator protein 1) after stimulation of TLR4) which contains sites where DNAs of NF-κB and AP-1 bind. Then, HEK-Blue™-hTLR4 cells were treated with varying concentrations of TIP or TIP (TIP W/O CPP), to which CPP is not linked, at 12.5, 25, 50 μM, and then an average value of SEAP activity was calculated to measure TLR4 activity. The results are illustrated in FIGS. 1(a) and 1(b).
The results are illustrated in FIGS. 12(a) and 12(b).

hPBMC cells = assay: NO secretion in LPS-treated hPBMC cells; assay type: cell-based, human; details: together with LPS, FIG. 12(b)
MyD88 = target: T2, MyD88 (Homo sapiens, UniProt Q99836); assay: Confocal microscopy of TIP1-FITC and MyD88 in THP1 cells; assay type: cell-based; details: TIP1-FITC and LPS
T2 construct: endogenous in cells; host or cells: THP1
T2 sequence (Q99836 whole entry): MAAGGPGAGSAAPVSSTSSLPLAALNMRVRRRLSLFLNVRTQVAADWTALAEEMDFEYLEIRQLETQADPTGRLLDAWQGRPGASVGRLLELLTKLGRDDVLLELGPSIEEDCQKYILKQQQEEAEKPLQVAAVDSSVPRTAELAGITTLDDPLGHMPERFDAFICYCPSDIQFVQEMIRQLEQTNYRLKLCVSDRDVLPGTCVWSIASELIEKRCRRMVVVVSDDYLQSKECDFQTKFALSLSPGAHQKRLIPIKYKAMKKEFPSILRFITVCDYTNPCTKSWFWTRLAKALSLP
Method: (§1) RAW 264.7 cells and THP1 cells were dispensed into 24-well plates to a cell number of 2×10^5 cells/well, and then grown in an incubator overnight. Subsequently, combined treatment with TIP1 and LPS was performed. After 24 hours, the RAW 264.7 cells and the THP1 cells were fixed with 3.7% formaldehyde (Sigma-Aldrich Co. LLC) for 15 minutes, and immersed into 0.2% Triton X-100 (AMRESCO, Solon, Ohio, USA) for 15 minutes. Then, washing with PBS was performed three times and blocking with 2% BSA solution was performed. The blocked cells were incubated for 2 hours with TIP1-FITC (25 μM; Peptron, Inc., Daejeon, Korea), p-p65, TLR4, Myd88, TOM20 (1:1000; Santa Cruz Biotechnology Inc.), and NLRP3 (Adipogen) antibodies. Then, washing with PBS was performed three times. Subsequently, the cells were incubated with AlexaFluor […] and/or 488 and/or 546-conjugated secondary antibodies (Invitrogen, Carlsbad, Calif., USA) for 1 hour, and washed three times with PBS. Subsequently, the cells were stained at room temperature for 15 minutes using 5 μM Hoechst 33258 (Sigma-Aldrich Co.), and the number of the fluorescently stained cells was counted using a confocal laser scanning microscope (LSM-700, Carl Zeiss MicroImaging GmbH). The images were analyzed using Zen 2009 software.
(§2) The results are illustrated in FIG. 13.

TLR4 = target: T3, TLR4 (Homo sapiens, UniProt O00206); assay: Confocal microscopy of TIP1-FITC and TLR4 in THP1 cells; assay type: cell-based; details: TIP1-FITC and LPS
T3 construct: endogenous in cells; host or cells: THP1
T3 sequence (O00206 24-839): as the sequence (O00206 24-839) above
Method: as §1, §2

Question: With RQIKIWFQNRRMKWKKVLLI (TIP1-3) as the substance, how does the “NF-κB activity (SEAP activity)” value (hTLR4 (human TLR4)) read?
Answer: no or insignificant changes were observed

Question: What about the NO secretion level (hPBMC cells) of the same substance?
Answer: no or insignificant changes were observed

Question: “TIP1-FITC: TIP1 with fluorescein isothiocyanate (FITC) bound to the N-terminus ({FITC′}-RQIKIWFQNRRMKWKKSHCRVLLI)” was tested. Which “interaction of TIP1-FITC with MyD88” value (MyD88) did it give?
Answer: formed a weak bond

Question: What about the “interaction of TIP1-FITC with TLR4” value (TLR4) of the same substance?
Answer: strongly bound to each other

Question: With “SHCRVLLI (Decoy peptide 1) [TIP1 W/O CPP]” as the substance, how does the “SEAP activity, CPP sequence not linked” value (hTLR4 (human TLR4)) read?
Answer: neither TIP1 (TIP1 W/O CPP) nor TIP2 (TIP2 W/O CPP) changed SEAP activity

Question: RQIKIWFQNRRMKWKKSHCR (TIP1-2) was tested. Which “NF-κB activity (SEAP activity)” value (hTLR4 (human TLR4)) did it give?
Answer: also decreased NF-κB activity

Question: What about the NO secretion level (hPBMC cells) of the same substance?
Answer: also inhibited NO secretion

Question: Which “LPS-induced SEAP activity” value (hTLR4 (human TLR4); TIP 12.5, 25, 50 μM, then LPS, FIG. 1(a)) does the source give for “RQIKIWFQNRRMKWKKTIPLLS (TIP2) [used as a control]” here?
Answer: unlike TIP2, TIP1 decreased LPS-induced SEAP activity

Question: Which “SEAP activity, CPP sequence not linked” value (hTLR4 (human TLR4)) does the source give for TIPLLS (Decoy peptide 2) [TIP2 W/O CPP] here?
Answer: neither TIP1 (TIP1 W/O CPP) nor TIP2 (TIP2 W/O CPP) changed SEAP activity
